Source: article PMC6859894 (Nature, 2019)
Like-named read-outs stand apart in the source and are kept apart here.

Experiments:
cryo-EM structure [1] = target: the molecule itself; experiment: cryo-EM structure
cryo-EM structure [2] = target: the molecule itself; experiment: cryo-EM structure; remark: listed apart in the source

B1: chicken STING (Gallus gallus), full-length, C-terminal Flag tag (natural protein, chicken (Gallus gallus), UniProt E1C7U0 1-379, looked up)
chain: MPQDPSTRSSPARLLIPEPRAGRARHAACVLLAVCFVVLFLSGEPLAPIIRSVCTQLAALQLGVLLKGCCCLAEEIFHLHSRHHGSLWQVLCSCFPPRWYLALLLVGGSAYLDPPEDNGHSPRLALTLSCLCQLLVLALGLQKLSAVEVSELTESSKKNVAHGLAWSYYIGYLKVVLPRLKECMEELSRTNPMLRAHRDTWKLHILVPLGCDIWDDLEKADSNIQYLADLPETILTRAGIKRRVYKHSLYVIRDKDNKLRPCVLEFASPLQTLCAMSQDDCAAFSREQRLEQARLFYRSLRDILGSSKECAGLYRLIAYEEPAEPESHFLSGLILWHLQQQQREEYMVQEELPLGTSSVELSLQVSSSDLPQPLRSDCP
Question: What does the source list for B1?
Answer: ratio of dimer to higher-order oligomers in the micrographs (cryo-EM structure [1]): ~4 dimer : higher-order oligomers; stoichiometry N (cryo-EM structure [1]): 4; stoichiometry N (cryo-EM structure [2]): 2
